According to US20260103686A1, “MICROBIAL STRAIN, PROTEIN, AND METHOD FOR PRODUCING GALLIC ACID USING MICROBIAL STRAIN OR PROTEIN” (UNIVERSITY OF TSUKUBA, priority 2022, published 2026):
Changes are numbered by the printed parent chain. In names and notes the source's numbering stands.

Tests used:
Assay in all cases: purified protein, by the assay type
[1] = substrate: O=C(O)c1ccc(O)cc1; conditions: other: pHBA substrate, 200 µM NADPH, 10 µM FAD, pH 7.9, 25° C., 340 nm
[2] = substrate: O=C(O)c1ccc(O)c(O)c1; format: biochemical, Hylemonella gracilis; conditions: other: PCA substrate, 200 µM NADPH, 10 µM FAD, pH 7.9, 25° C., 340 nm
Description: (§1) The cell-free extracts were subjected to a HisTrap HP column (GE healthcare) which was equilibrated with an equilibration buffer (20 mM Tris-HCl buffer (pH 7.9), 20 mM imidazole), and then fractions eluted with an eluent (20 mM Tris-HCl buffer (pH 7.9), 500 mM imidazole) were collected.
The protein concentrations of the purified enzyme liquids were measured using Bio-Rad Protein Assay Dye Reagent Concentrate (Bio-Rad, USA), and the purified enzyme liquids were diluted to 1 of mg/mL with a buffer. Thus, purified enzyme liquids protocatechuic acid 5-hydroxylases, HgPobA, HyPobA, PoPobA, HgPobA-TY and PaPobA, were prepared.
Using the purified enzyme liquids of HgPobA, HgPobA-TY, PoPobA, HyPobA and PaPobA described above, a reaction kinetic analysis was conducted.

[3] = substrate: O=C(O)c1ccc(O)c(O)c1; conditions: other: PCA substrate, 200 µM NADPH, 10 µM FAD, pH 7.9, 25° C., 340 nm
Description: as §1
The protein concentrations of the purified enzyme liquids were measured using Bio-Rad Protein Assay Dye Reagent Concentrate (Bio-Rad, USA), and the purified enzyme liquids were diluted to 1 of mg/mL with a buffer.

B1: Hylemonella gracilis-derived PobA (HgPobA), protocatechuic acid 5-hydroxylase, wild type, SEQ ID NO: 20 (Hylemonella gracilis ATCC 19624) (protein)
chain: MSYPTRTQVAIIGAGPSGLMLGALLHKAGIDTVVLERQSGDYVLGRIRAGVLEQVTMDLMDEIGVGARMHQEGLVHGGFDMLFQGQRHRIDMNRLTGGQNVMVYGQTEVTRDLMDARQQAGLTTIYEAANVAIHDFGSGKPRVTYEKDGKTHELQCDFIAGCDGFHGVCRDTVKKSASASAIREYEKVYNFGWLGLLSDTPPVHHELIYVNSERGFALCSQRSATRSRYYLQVPLTDKVEQWSDQAFWDELKLRLDPQAREHLVTGPSIEKSIAPLRSFVTEPLRFGRLFLAGDAGHIVPPTGAKGLNLAATDVKYLSAALTEFYQGKSEAGINHYSERCLKRIWRAERFSWWFTSLMHRFPENGEIGQKLQEAELDYIVHSETGARSVAENYVGLPLDFGA
Km [1]: 35 µM | kcat [1]: 5.6 s⁻¹ | kcat/Km [1]: 160000 M⁻¹ s⁻¹ | Km [2]: 260 µM | kcat [2]: 0.74 s⁻¹ | kcat/Km [2]: 2800 M⁻¹ s⁻¹

B2: Hylemonella gracilis-derived PobA (HgPobA, SEQ ID NO: 20) variant HgPobA-TY, T302A/Y393F (gene SEQ ID NO: 37) (Hylemonella gracilis ATCC 19624; T302A/Y393F) (protein)
chain: B1 chain with T302A, Y393F
Km [3]: 41 µM | Km [1]: 34 µM | kcat [1]: 3.1 s⁻¹ | kcat/Km [1]: 91000 M⁻¹ s⁻¹
